Laboratory results as given in paper PMC10692919.

Target: BMPs (in the Hep3B hepcidin bioassay)

IC50 of suppression of hepcidin mRNA (qPCR) in Hep3B cells: 10 nM
B1: Full-length ERFE ΔCollagen, 43-354 del109-125, FLAG-tagged (natural protein)
chain: EPPPGNELPRGPGESRAGPAARPPEPTAERAHSVDPRDAWMLFVRQSDKGVNGKKRSRGKAKKLKFIIPPEALLKEFQLLLKGAVRQRERAEPEPCTCGPAGPVAASLAPVSATAGEDDDDVVGDVLALLAAPLAPGPRAPRVEAAFLCRLRRDALVERRALHELGVYYLPDAEGAFRRGPGLNLTSGQYRAPVAGFYALAATLHVALGEPPRRGPPRPRDHLRLLICIQSRCQRNASLEAIMGLESSSELFTISVNGVLYLQMGQWTSVFLDNASGCSLTVRSGSHFSAVLLGV
